Assay results taken from article PMC3155284.

Tests used:
[1] = molecular target: EphA2, endogenous (human (endogenous in PC3 and U251)) (UniProt P29317)
[2] = molecular target: EphA2, endogenous (human (endogenous in PC3 and U251)) (UniProt P29317); remark: listed apart in the source

Sequence of UniProt P29317 (P29317 24-976): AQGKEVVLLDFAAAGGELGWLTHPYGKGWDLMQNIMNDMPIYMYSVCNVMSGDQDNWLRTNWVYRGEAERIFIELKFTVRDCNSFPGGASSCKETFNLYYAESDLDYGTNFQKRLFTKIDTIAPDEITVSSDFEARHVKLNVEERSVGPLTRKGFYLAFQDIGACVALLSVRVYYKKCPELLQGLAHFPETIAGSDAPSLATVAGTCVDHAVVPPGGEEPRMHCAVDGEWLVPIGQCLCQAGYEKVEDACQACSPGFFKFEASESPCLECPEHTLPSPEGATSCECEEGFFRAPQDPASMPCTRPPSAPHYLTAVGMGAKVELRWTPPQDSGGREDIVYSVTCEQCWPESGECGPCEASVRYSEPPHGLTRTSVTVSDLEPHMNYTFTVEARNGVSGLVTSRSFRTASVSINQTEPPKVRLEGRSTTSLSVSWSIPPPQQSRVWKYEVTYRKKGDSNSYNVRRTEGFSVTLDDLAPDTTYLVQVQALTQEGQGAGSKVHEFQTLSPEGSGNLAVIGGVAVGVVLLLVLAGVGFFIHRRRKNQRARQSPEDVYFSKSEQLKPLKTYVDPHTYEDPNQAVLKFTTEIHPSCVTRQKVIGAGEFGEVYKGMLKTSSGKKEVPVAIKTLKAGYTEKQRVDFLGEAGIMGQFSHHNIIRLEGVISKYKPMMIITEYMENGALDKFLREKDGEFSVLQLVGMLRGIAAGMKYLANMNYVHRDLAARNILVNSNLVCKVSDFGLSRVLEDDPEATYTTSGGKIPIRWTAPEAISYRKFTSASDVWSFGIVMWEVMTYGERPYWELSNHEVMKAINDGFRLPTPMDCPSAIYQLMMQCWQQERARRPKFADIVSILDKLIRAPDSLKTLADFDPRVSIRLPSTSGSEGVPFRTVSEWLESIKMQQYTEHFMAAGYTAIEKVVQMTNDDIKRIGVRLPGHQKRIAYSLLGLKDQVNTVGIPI

ephrin A1-Fc (from UniProt P20827 19-182) (Fc fusion)
rounding of PC3 cells after a brief exposure to ephrin A1-Fc [1]: 90% | inhibition of U251 cell migration in Boyden chambers by ligand [2]: 50%
